Positions count from the first letter of the chain named. Names and notes keep the numbering of the source.
B1: feline IgG1a mutant ID No. 347: S252Y, S428M, S434F, L314K (antibody, part only; not given: variable domains and light chain, not shown: another chain or arm of the molecule)
constant: ASTTAPSVFPLAPSCGTTSGATVALACLVLGYFPEPVTVSWNSGALTSGVHTFPAVLQASGLYSLSSMVTVPSSRWLSDTFTCNVAHPPSNTKVDKTVRKTDHPPGPKPCDCPKCPPPEMLGGPSIFIFPPKPKDTLYISRTPEVTCLVVDLGPDDSDVQITWFVDNTQVYTAKTSPREEQFNSTYRVVSVLPILHQDWKKGKEFKCKVNSKSLPSPIERTISKAKGQPHEPQVYVLPPAQEELSRNKVSVTCLIKSFHPPDIAVEWEITGQPEPENNYRTTPPQLDSDGTYFVYSKLSVDRSHWQRGNTYTCSVMHEALHFHHTQKSLTQSPGK
B2: feline IgG1a mutant ID No. 296: S252Y, S428Y, Q311W, S434Y (antibody, part only; not given: Variable domains, not shown: another chain or arm of the molecule; small tags and cut ends)
constant: B1 constant with Q197W, K200L, M316Y, F322Y
B3: feline IgG1a mutant ID No. 328: S428Y, D312P, S434Y, P247V, T250Q, S252H (antibody, part only; not given: Variable domains, not shown: another chain or arm of the molecule; small tags and cut ends)
constant: B1 constant with P133V, T136Q, Y138H, D198P, K200L, M316Y, F322Y
B4: feline IgG1a mutant ID No. 343: S252Y, S428M, S434F, D399M (antibody, part only; not given: Variable domains, not shown: another chain or arm of the molecule; small tags and cut ends)
constant: B1 constant with K200L, D287M
B5: feline IgG1a mutant ID No. 291: S252Y, S428Y, Q311W, D312P, L314K (antibody, part only; not given: Variable domains, not shown: another chain or arm of the molecule; small tags and cut ends)
constant: B1 constant with Q197W, D198P, M316Y, F322S
B6: feline IgG1a mutant ID No. 338: S252Y, S428M, S434F, D399T (antibody, part only; not given: variable domains and light chain, not shown: another chain or arm of the molecule)
constant: B1 constant with K200L, D287T
B7: feline IgG1a mutant ID No. 300: S428Y, Q311W, D312P, S434Y (antibody, part only; not given: Variable domains, not shown: another chain or arm of the molecule)
constant: B1 constant with Y138S, Q197W, D198P, K200L, M316Y, F322Y
B8: feline IgG1a mutant ID No. 282: S252Y, Q311W, D312P, L314K (antibody, part only; not given: Variable domains, not shown: another chain or arm of the molecule)
constant: B1 constant with Q197W, D198P, M316S, F322S
B9: feline IgG1a mutant ID No. 332: S428Y, D312P, S434Y, Q311R, L314K (antibody, part only; not given: Variable domains, not shown: another chain or arm of the molecule; small tags and cut ends)
constant: B1 constant with Y138S, Q197R, D198P, M316Y, F322Y
B10: feline IgG1a mutant ID No. 340: S252Y, S428M, S434F, Q311R (antibody, part only; not given: Variable domains, not shown: another chain or arm of the molecule)
constant: B1 constant with Q197R, K200L
B11: feline IgG1a mutant ID No. 285: S252Y, Q311W, L314K, S434Y (antibody, part only; not given: Variable domains, not shown: another chain or arm of the molecule)
constant: B1 constant with Q197W, M316S, F322Y
B12: feline IgG1a mutant ID No. 281: S252Y, D312P, L314K, S434Y (antibody, part only; not given: Variable domains, not shown: another chain or arm of the molecule)
constant: B1 constant with D198P, M316S, F322Y
B13: feline IgG1a mutant ID No. 283: S252Y, Q311W, D312P, L314K, S434Y (antibody, part only; not given: Variable domains, not shown: another chain or arm of the molecule)
constant: B1 constant with Q197W, D198P, M316S, F322Y
B14: feline IgG1a mutant ID No. 308: P247V, S252H (antibody, part only; not given: Variable domains, not shown: another chain or arm of the molecule; small tags and cut ends)
constant: B1 constant with P133V, Y138H, K200L, M316S, F322S
B15: feline IgG1a mutant ID No. 336: S252Y, S428M, S434F, A431K (antibody, part only; not given: Variable domains, not shown: another chain or arm of the molecule)
constant: B1 constant with K200L, A319K
B16: feline IgG1a mutant ID No. 334: S428Y, D312P, S434Y, T250Q, S252H (antibody, part only; not given: Variable domains, not shown: another chain or arm of the molecule)
constant: B1 constant with T136Q, Y138H, D198P, K200L, M316Y, F322Y
B17: feline IgG1a mutant ID No. 344: S252Y, S428M, S434F, D401R (antibody, part only; not given: Variable domains, not shown: another chain or arm of the molecule)
constant: B1 constant with K200L, D289R
B18: feline IgG1a mutant ID No. 325: S428Y, D312P, S434Y, D401R, T403R (antibody, part only; not given: Variable domains, not shown: another chain or arm of the molecule)
constant: B1 constant with Y138S, D198P, K200L, D289R, T291R, M316Y, F322Y
B19: feline IgG1a mutant ID No. 348: S252Y, S428M, S434F, Q311H (antibody, part only; not given: Variable domains, not shown: another chain or arm of the molecule)
constant: B1 constant with Q197H, K200L
B20: feline IgG1a mutant ID No. 310: P247V, T250Q, S252H (antibody, part only; not given: variable domains and light chain, not shown: another chain or arm of the molecule; small tags and cut ends)
constant: B1 constant with P133V, T136Q, Y138H, K200L, M316S, F322S
B21: feline IgG1a mutant ID No. 319: S428Y, D312P, A431K, S434P (antibody, part only; not given: variable domains, not shown: another chain or arm of the molecule)
constant: B1 constant with Y138S, D198P, K200L, M316Y, A319K, F322P
B22: feline IgG1a mutant ID No. 297: S428Y, D312P, L314K, S434Y (antibody, part only; not given: Variable domains, not shown: another chain or arm of the molecule)
constant: B1 constant with Y138S, D198P, M316Y, F322Y
B23: feline IgG1a mutant ID No. 339: S252Y, S428M, S434F, P247L (antibody, part only; not given: Variable domains, not shown: another chain or arm of the molecule)
constant: B1 constant with P133L, K200L
B24: feline IgG1a mutant ID No. 345: S252Y, S428M, S434F, E430I (antibody, part only; not given: Variable domains, not shown: another chain or arm of the molecule)
constant: B1 constant with K200L, E318I
B25: feline IgG1a mutant ID No. 287: S252Y, S428Y, D312P, L314K, S434Y (antibody, part only; not given: Variable domains, not shown: another chain or arm of the molecule)
constant: B1 constant with D198P, M316Y, F322Y
B26: feline IgG1a mutant ID No. 316: S428M, A431K (antibody, part only; not given: Variable domains, not shown: another chain or arm of the molecule)
constant: B1 constant with Y138S, K200L, A319K, F322S
B27: feline IgG1a mutant ID No. 341: S252Y, S428M, S434F, D312A (antibody, part only; not given: Variable domains, not shown: another chain or arm of the molecule; small tags and cut ends)
constant: B1 constant with D198A, K200L

molecular target: feline FcRn complex (FcRn-α subunit and β-microglobulin) (feline); experiment: SPR (Biacore), FcRn on SA chip, pH 6

Kd	Binder
0.0567 nM	B1
0.544 nM	B2
0.0418 nM	B3
0.041 nM	B4
39.7 nM	B5
0.0272 nM	B6
0.235 nM	B7
30 nM	B8
0.332 nM	B9
0.025 nM	B10
1.21 nM	B11
2.35 nM	B12
1.14 nM	B13
5.61 nM	B14
0.0359 nM	B15
0.182 nM	B16
0.0128 nM	B17
0.0072 nM	B18
0.00949 nM	B19
8.21 nM	B20
6.96 nM	B21
0.898 nM	B22
0.0168 nM	B23
0.0227 nM	B24
0.633 nM	B25
4.87 nM	B26
0.0353 nM	B27

molecular target: feline FcRn complex (FcRn-α subunit and β-microglobulin) (feline); experiment: SPR (Biacore), FcRn on SA chip, pH 7.4

Kd	Binder
10.5 nM	B1
1480 nM	B2
8.68 nM	B3
10.9 nM	B4
16700 nM	B5
13.8 nM	B6
182 nM	B7
119 nM	B8
28.6 nM	B9
3.3 nM	B10
1730 nM	B11
1590 nM	B12
300 nM	B13
17.9 nM	B14
7.28 nM	B15
19.9 nM	B16
11 nM	B17
11.1 nM	B18
10.8 nM	B19
24.4 nM	B20
1080 nM	B21
82.9 nM	B22
6.73 nM	B23
11.5 nM	B24
127 nM	B25
2420 nM	B26
6.5 nM	B27
